From article PMC13626732

Experiments:
[1] = molecular target: actin-related protein (Arp) 2/3 complex (UniProt P61160); test: SPR; Arpin variants and dual-tailed peptides against the Arp2/3 complex; who was immobilised was not shown; hArpin as the dimer-enriched population
[2] = molecular target: GST-aCT (chimeric protein with Arpin's CT fused to the C-terminus of glutathione S-transferase); test: SEC; recombinant GST-aCT

In the case of “full-length human Arpin (hArpin) (from UniProt Q7Z6K5 1-226) (natural protein)”, the Kd [1] is reported as 14.1 µM.
Substance “ArpinCT (residues 192–226) (from UniProt Q7Z6K5 192-226) (peptide)” has a Kd [1] of 17.8 µM.
Work on “GST-aCT (chimeric protein with Arpin's CT fused to the C-terminus of glutathione S-transferase)” yielded a Kd [1] of 2.5 µM and a stoichiometry N [2] of 2.
